Experimental data as given in KR20130033273A (dated 2013).

Target: T1, IGF-1R (Insulin-like growth factor 1 receptor) on the surface of MCF-7 cells (UniProt P08069 31-1367, limits assumed)
T1 construct: whole, on cells; Endogenous receptor of MCF-7 cells; also called MCF-7 세포 표면 IGF-1R 항원; IGF-1 수용체
Experiment: flow cytometry (FACS) on MCF-7 cells, 1 ug/ml antibody, anti-human IgG-FITC

T1 sequence (P08069 31-1367 limits assumed): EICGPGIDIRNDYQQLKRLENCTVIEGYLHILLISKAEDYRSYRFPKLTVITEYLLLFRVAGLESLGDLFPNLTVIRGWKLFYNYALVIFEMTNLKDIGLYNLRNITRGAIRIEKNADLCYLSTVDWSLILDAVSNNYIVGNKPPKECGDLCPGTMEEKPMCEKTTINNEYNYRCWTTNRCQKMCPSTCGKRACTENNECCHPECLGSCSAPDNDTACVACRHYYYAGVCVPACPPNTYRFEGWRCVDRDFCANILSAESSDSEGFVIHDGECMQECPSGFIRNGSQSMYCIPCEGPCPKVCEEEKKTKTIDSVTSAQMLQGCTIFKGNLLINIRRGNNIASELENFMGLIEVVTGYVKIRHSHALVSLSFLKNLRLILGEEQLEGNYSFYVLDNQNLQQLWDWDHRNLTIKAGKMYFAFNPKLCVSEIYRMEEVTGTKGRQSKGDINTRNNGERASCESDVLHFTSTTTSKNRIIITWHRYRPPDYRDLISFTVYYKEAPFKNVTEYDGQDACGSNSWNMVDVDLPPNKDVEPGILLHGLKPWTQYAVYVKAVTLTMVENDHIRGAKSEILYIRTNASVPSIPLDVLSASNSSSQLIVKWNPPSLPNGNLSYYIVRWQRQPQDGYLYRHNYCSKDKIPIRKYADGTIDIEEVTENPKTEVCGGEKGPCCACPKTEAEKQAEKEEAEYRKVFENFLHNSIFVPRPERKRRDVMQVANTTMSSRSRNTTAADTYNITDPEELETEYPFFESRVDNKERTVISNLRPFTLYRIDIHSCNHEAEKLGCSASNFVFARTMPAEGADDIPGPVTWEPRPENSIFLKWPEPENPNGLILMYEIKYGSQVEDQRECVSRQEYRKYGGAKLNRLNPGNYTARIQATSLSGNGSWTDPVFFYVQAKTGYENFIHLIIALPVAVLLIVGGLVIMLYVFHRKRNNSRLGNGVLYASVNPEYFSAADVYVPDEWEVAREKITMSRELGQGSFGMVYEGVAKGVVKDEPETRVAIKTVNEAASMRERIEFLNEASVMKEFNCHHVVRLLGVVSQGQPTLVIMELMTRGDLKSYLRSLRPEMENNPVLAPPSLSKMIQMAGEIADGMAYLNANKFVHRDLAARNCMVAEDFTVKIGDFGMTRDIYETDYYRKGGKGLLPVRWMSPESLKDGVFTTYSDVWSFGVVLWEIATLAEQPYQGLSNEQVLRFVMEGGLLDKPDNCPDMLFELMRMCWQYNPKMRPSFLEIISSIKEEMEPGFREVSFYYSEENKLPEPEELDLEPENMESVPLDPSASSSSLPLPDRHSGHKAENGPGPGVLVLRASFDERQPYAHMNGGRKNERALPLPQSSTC

B1: 항IGF-1R 항체(A12) (antibody, human IgG1, lambda, V domains shown)
VH: EVQLVQSGAEVKKPGSSVKVSCKASGGTFSSYAISWVRQAPGQGLEWMGGIIPIFGTANYAQKFQGRVTITADKSTSTAYMELSSLRSEDTAVYYCARAPLRFLEWSTQDHYYYYYMDVWGKGTTVTVSS
VL: SSELTQDPAVSVALGQTVRITCQGDSLRSYYATWYQQKPGQAPILVIYGENKRPSGIPDRFSGSSSGNTASLTITGAQAEDEADYYCKSRDGSGQHLVFGGGTKLTVLG
notes: IgG form; also called 항암항체(A12); Imclone사(A12) 항IGF-1R 항체
binding result: binds
